Article PMC10934500, “Exploring the Anti-Diabetic Potential of Quercetagitrin through Dual Inhibition of PTPN6 and PTPN9” (Nutrients, 2024)

System: Cc1cc(=O)oc2c(F)c(OP(=O)(O)O)c(F)cc12
Assay: Michaelis-Menten kinetics (KM) with purified enzyme, fluorescence
Type: biochemical, Homo sapiens

Substance: PTPN6 (Homo sapiens)
- Km: 187.5 µM
- Vmax: 10.8 µM/min
- kcat: 30 s⁻¹
- kcat/Km: 162000 M⁻¹ s⁻¹
